The target in test [1] is Csx28 (Prevotella buccae Type VI-B2 CRISPR-Cas accessory protein), recombinant, DDM-solubilised (Prevotella buccae ATCC 33574). In words: cryo-EM structure.
Test [2] has the same target. In words: SEC-MALS. A general note: SEC sorts molecules by how far they enter the pores of the column.

Where “and” joins values, the source holds several entries; their conditions need not be identical. Equal entries are not always repeated.

The stoichiometry N is a count of units in the complex or per binding partner. For the substance “Csx28 (Prevotella buccae Type VI-B2 CRISPR-Cas accessory protein), recombinant, DDM-solubilised (natural protein)”, the stoichiometry N was 8 and 16 in test [1]; 8 and 16 in test [2].

(Values after publication doi:10.1101/2021.11.02.466367.)
